Source: US8802630B2, “Method of treating brain injury” (Buddhist Tzu Chi General Hospital, priority 2011, dated 2014)
Where no end group is shown, it is not given here.

How the values were obtained:
[1] = tested on: collagenase-induced ICH rats; assay: modified Neurological Severity Score (mNSS), collagenase-induced ICH model; type: in vivo
Description: The ICH refers to hemorrhage in the striatum, a part of the brain. Male Sprague-Dawley rats (250-300 g) anesthetized with chloral hydrate (0.4 g kg^−1 i.p., Sigma-Aldrich, St. Louis, Mo., USA). The blood infusion model of ICH was induced by intrastriatal (0.0 mm posterior, 3.0 mm right, 5.0 mm ventral to bregma skull surface) infusion of autologous blood (100 μl within 1 minute) and stereotaxic administration of bacterial collagenase VII-S into the striatum (MacLellan et al. 2008; Rosenberg et al. 1990). Briefly, bacterial collagenase VII-S (0.23 U in 1.0 μl sterile saline, Sigma-Aldrich) was infused into the striatum over a period of 10 minutes. The needle was kept in place for another 10 minutes to prevent backflow. The craniotomies were sealed with bone wax. The rats were allowed to recover in separate cages at room temperature.
Rats were used in the assessment of the neurological abnormalities with a modified Neurological Severity Score (mNSS) method (Chen et al. 2001) by an investigator blinded to the experimental treatment scheme. The mNSS is a composite test of motor, sensory, and balance functions. The assessment was performed before and on 1, 3 and 7 days after the ICH. Neurological functions were graded on a scale of 0-18 (normal score, 0; maximal deficit score, 18).

NeuN+ cells (neurons) = assay: Immunohistochemistry of neuronal loss (NeuN); type: in vivo, rats; settings: perihematomal region; L-UCN 2.5 μg/kg i.p.; day 3 post-ICH
Description: Rats were used in immunohistochemistry on day 3 post-ICH. Rats were anesthetized as described above and transcardially perfused with cold 0.1 M phosphate buffer saline followed by cold 4% paraformaldehyde in 0.1 M phosphate-buffered saline. Brains were removed and immersed in 4% paraformaldehyde for 24 hours and 30% sucrose for another 24 hours. Coronal brain sections (20 μm thickness) were cut and collected from 0.0 to −2.0 mm AP to bregma using a cryostat (Leica CM 1900). Three 20 μm coronal sections, representing the core of the hematoma, were taken starting at 0.0 mm from bregma (the needle entry site). Additional adjacent serial coronal sections taken through the center of the hemorrhagic lesion were processed for the counting of marker-specific cells (Jung et al., 2004). Antibodies of OX-42 (1:100; BD, USA), ED-1 (1:100; BD, USA) were used as microglial markers, and NeuN (1:200, Chemicon, USA) was used as neuron marker. Tissues sections were incubated with the primary antibodies overnight at 4° C. […] The numbers of positive cells in the same focal plane were counted in 6 regions of interest around the ipsilateral striatum (perihematomal region, 1 mm^2) All cell counting was done by an independent investigator counted the positive cells.

[2] = tested on: collagenase-induced ICH rats; assay: Assessment of blood-brain barrier disruption (Evans blue extravasation); type: in vivo
Description: Rats were randomly used in assessment of the vascular permeability of BBB with a modified Evans blue extravasation method (Esen et al., 2005). Briefly, 70 hours post-ICH, rats were anesthetized with chloral hydrate (0.4 g/kg) and infused, via the right femoral vein with 37° C. Evans blue dyes (2% in 0.9% normal saline, 4 ml/kg) over 5 minutes. Two hours later, the rats were perfused with 300 ml normal saline to wash out any remaining dye in the blood vessels and then brains were removed and sectioned into 2 mm thickness by a rodent brain matrix. Coronal brain sections were taken starting at +2 mm and ending at −4 mm from Bregma. BBB permeability was evaluated in the striatum, cortex and cerebellum. The cerebellum was used as an internal control. Each portion was weighed immediately and placed in 1 ml of 0.9% normal saline for homogenization of the sample. For protein precipitation, 1 ml of 60% trichloroacetic acid solution was added and vortexed for 2 minutes. The mixture was subsequently cooled for 30 minutes and centrifuged (1500 g at 4° C.) for another 30 minutes. The absorbance of Evans blue in the supernatant was then measured with a spectrophotometer (Molecular Devices OptiMax, USA) at 610 nm The dye concentration was expressed as μg/g of tissue weight and calculated from a standard curve obtained from known amounts of the dye.

[3] = Evaluation of physiological parameters (MABP, heart rate, rectal temperature, blood gases); type: in vivo, rats; settings: for RT (rectal temperature) / pCO2 / pO2 / pH: ICH + L-UCN 2.5 μg/kg i.p.; for decrease in MABP / increase in HR: 1.0 to 3.0 h post-treatment; for pH: arterial blood
Description: Rats were randomly assigned for evaluation of physiological parameters including mean arterial blood pressure, blood gases, body weight changes and body temperature. Under urethane (urethane (1.0 g/kg bodyweight, intraperitoneally, Sigma-Aldrich) anesthesia, a femoral artery was cannulated with a PE-50 polyethylene tube for fluid supplementation and monitoring of arterial blood pressure and blood gas. Arterial blood pressure was recorded through an amplifier (MP35, BIOPAC system, Inc.) and stored in a PC computer. Body temperature (rectal temperature) was automatically maintained at 37.5±0.5° C. by a rectal temperature sensor and a heating pad (CMA-150, Sweden). The physiological parameters were measured before (baseline) and after treatment (UCN or Saline) 0.5, 1 and 3 hours.

[4] = UCN 2.5 μg/kg i.p. 1 h after ICH

urocortin (DNPSLSIDLTFHLLRTLLELARTQSQRERAEQNRIIFDSV; ends and bridges not checked; UniProt P55089 83-122, looked up) [UCN, a 40-amino-acid endogenous neuropeptide, belongs to the corticotrophin releasing hormone (CRH) family]
mNSS ([1]; H-UCN 25 μg/kg i.p. 60 min post-ICH, day 1, scale 0-18): 6.55±0.26
mNSS ([1]; H-UCN 25 μg/kg i.p. 60 min post-ICH, day 3, scale 0-18): 4.68±0.29
mNSS ([1]; H-UCN 25 μg/kg i.p. 60 min post-ICH, day 7, scale 0-18): 2.00±0.26
mNSS ([1]; L-UCN 2.5 μg/kg i.p. 60 min post-ICH, day 1, scale 0-18): 3.86±0.70
mNSS ([1]; L-UCN 2.5 μg/kg i.p. 60 min post-ICH, day 3, scale 0-18): 1.71±0.55
mNSS ([1]; L-UCN 2.5 μg/kg i.p. 60 min post-ICH, day 7, scale 0-18): 1.63±0.46
mNSS ([1]; UCN 0.05, 0.5 and 5 μg i.c.v. 1 h after collagenase ICH, over 7 days, most effective at 5 μg, vs ICH+Saline): dose-dependent reduction in the mNSS
NeuN+ cells (NeuN+ cells (neurons)): 397.00±39.74 cells/6 mm^2
Evans blue dye concentration ([2]; cerebellum, contralateral cerebral cortex and striatum, L-UCN 2.5 μg/kg i.p., day 3): not changed
Evans blue dye concentration ([2]; contralateral striatum, contralateral and ipsilateral cortices, cerebellum, UCN 5 μg i.c.v., day 3, vs ICH+Saline): not different
Evans blue dye concentration ([2]; ipsilateral cortex, L-UCN 2.5 μg/kg i.p., day 3 post-ICH): 0.38 ± 0.05 µg/g
Evans blue dye concentration ([2]; ipsilateral striatum, L-UCN 2.5 μg/kg i.p., day 3 post-ICH): 1.73 ± 0.36 µg/g
Evans blue concentration ([2]; ipsilateral striatum, UCN 5 μg i.c.v., day 3 after ICH): 1.24 ± 0.31 µg/g
RT (rectal temperature) ([3]; 0.5 h post-treatment): 36.95 ± 0.03 °C
pCO2 ([3]; 0.5 h post-treatment): 45.07 ± 1.05 mmHg
pO2 ([3]; 0.5 h post-treatment): 105.24 ± 6.00 mmHg
RT (rectal temperature) ([3]; 1.0 h post-treatment): 37.00 ± 0.05 °C
pCO2 ([3]; 1.0 h post-treatment): 42.60 ± 2.44 mmHg
pO2 ([3]; 1.0 h post-treatment): 107.28 ± 5.35 mmHg
RT (rectal temperature) ([3]; 3.0 h post-treatment): 36.97 ± 0.02 °C
pCO2 ([3]; 3.0 h post-treatment): 43.25 ± 1.59 mmHg
pO2 ([3]; 3.0 h post-treatment): 107.90 ± 5.59 mmHg
RT (rectal temperature) ([3]; baseline): 36.92 ± 0.05 °C
pCO2 ([3]; baseline): 46.73 ± 1.80 mmHg
pO2 ([3]; baseline): 100.00 ± 4.40 mmHg
decrease in MABP [3, 4]: ≤ 25 mm Hg
increase in HR [3, 4]: ≤ 35 beats/min
mean arterial blood pressure ([3]; UCN 5 μg i.c.v., over 3 hours): no significant difference
fall in mean arterial blood pressure (MABP) ([3]; UCN 25 μg/kg body weight, bolus intraperitoneal injection): 40-50 mmHg
fall of MABP ([3]; UCN 25 μg/kg body weight, bolus intravenous injection, vs intraperitoneal): much more abrupt fall of MABP
decrease in MABP ([3]; UCN 25 μg/kg i.p.): ≤ 40 mm Hg
increase in HR ([3]; UCN 25 μg/kg i.p.): ≤ 45 beats/min
pH ([3]; 0.5 h post-treatment): 7.39 ± 0.01
pH ([3]; 1.0 h post-treatment): 7.42 ± 0.01
pH ([3]; 3.0 h post-treatment): 7.42 ± 0.01
pH ([3]; baseline): 7.37 ± 0.02
